Results from patent publication US20250115663A1 (CELLDEX THERAPEUTICS, published 2025).
Positions count from the first letter of the chain named.

Experiments:
Test in all cases: ELISA, kappa-sCD40-Flag fusion (~2 ug/ml) captured on anti-Flag, anti-human IgG Fc-HRP
[1] = target: T1, kappa-sCD40(1-94)-Flag point mutant E33A (human, UniProt P25942 21-114)
T1 construct: not shown: N-terminal human kappa light chain; C-terminal Flag tag
T1 chain: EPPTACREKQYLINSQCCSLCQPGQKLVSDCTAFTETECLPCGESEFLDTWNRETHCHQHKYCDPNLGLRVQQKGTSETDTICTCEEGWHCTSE
Description: (§1) containing the sCD40 fusion proteins were captured to microtiter plates that were pre-coated with 5 μg/ml mouse anti-Flag antibody (Sigma) in PBS and blocked with 5% bovine serum albumin in PBS. Following incubation with the CD40 antibody, the microplates were washed with PBS/Tween, and incubated with a goat anti-human IgG Fc polyclonal reagent conjugated to horseradish peroxidase. After washing, the plates were developed with HRP substrate, and analyzed at OD 450-650 using a microtiter plate reader. An ELISA with a goat anti-human IgG Fab2-HRP to measure kappa chain binding was carried out in parallel to validate the sCD40 fusion protein expression from different transfections.

[2] = target: T2, kappa-sCD40(1-94)-Flag point mutant P2Q (human, UniProt P25942 21-114)
T2 construct: not shown: N-terminal human kappa light chain; C-terminal Flag tag
T2 chain: T1 chain with P2Q, A33E
Description: as §1

[3] = target: T3, kappa-sCD40-Flag fusion protein, fragment amino acids 1-94 (human, UniProt P25942 21-114)
T3 construct: also called sCD40aa 1-94; not shown: N-terminal human kappa light chain; C-terminal Flag tag
Description: as §1

[4] = target: T4, kappa-sCD40(1-94)-Flag point mutant F34L (human, UniProt P25942 21-114)
T4 construct: not shown: N-terminal human kappa light chain; C-terminal Flag tag
T4 chain: T1 chain with A33E, F34L
Description: as §1

B1: anti-CD40 human monoclonal antibody 3C3 (antibody, human IgG2, kappa, V domains shown)
VH: QVQLVESGGGVVQPGRSLRLSCAGSGFIFSRYGMYWVRQAPGKGLEWVAVIWYDGSYKYYADSVKGRFTISRDNSKNTLYLQMNSLRAEDTAVYYCARESPWYYFDYWGQGTLVTVSS
VL: DIQMTQSPSSLSASVGDRVTITCRASQGISNYLAWYQQKPGKVPKLLIYAASTLQSGVPSRFSGSGSGTDFTLTISSLQPEDVATYYCQKYKSAPFTFGPGTKVDIKR
notes: Human IgG2, C-terminal lysine removed; also called anti-CD40 mAb 3C3; CD40 antibody 3C3
Average OD [1]: 1.62 OD 450-650
Average OD [2]: 2.08 OD 450-650
Average OD [3]: 2.16 OD 450-650
Average OD [4]: 1.88 OD 450-650
